Measurements: patent publication US20180086825A1 (published 2018)

Molecular target: T1, Ang2 protein (R&D systems) (human, UniProt O15123 19-496, limits assumed)
T1 sequence: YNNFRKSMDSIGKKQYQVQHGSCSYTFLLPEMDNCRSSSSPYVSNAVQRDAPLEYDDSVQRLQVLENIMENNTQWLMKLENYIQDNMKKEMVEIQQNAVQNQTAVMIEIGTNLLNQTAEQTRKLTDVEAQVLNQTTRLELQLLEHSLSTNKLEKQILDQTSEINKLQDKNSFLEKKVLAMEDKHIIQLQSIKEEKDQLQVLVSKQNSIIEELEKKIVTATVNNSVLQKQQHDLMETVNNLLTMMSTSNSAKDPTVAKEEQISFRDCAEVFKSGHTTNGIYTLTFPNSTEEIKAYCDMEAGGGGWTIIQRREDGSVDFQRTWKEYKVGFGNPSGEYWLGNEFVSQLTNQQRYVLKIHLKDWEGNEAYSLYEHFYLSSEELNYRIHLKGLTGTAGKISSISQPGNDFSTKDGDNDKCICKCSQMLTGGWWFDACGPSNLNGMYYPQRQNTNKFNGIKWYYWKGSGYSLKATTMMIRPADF
Experiment: cell-based or functional assay

B1: SAIT-ANG2-AB-m10D6 (antibody, V domains shown)
VH: DVQLQESGPGLVKPSQSLSLTCTVTGYSITSDYAWNWIRQFPGNKLEWMGYINYSGNTDYNPSLKSRSSITRDTSKNQFFLQLNSVTTGDTATYYCARGNFEGAMDYWGQGTSVTVSS
VL: SIVMTQTPKFLLVSAGDRVTITCKASQSVSNDVAWYQQKPGQSPKLLIYYASNRYPGVPDRFTGSGYGTDFTFTISTVQAEDLAVYFCQQDYSSPWTFGGGTKLEIK
Tie2 phosphorylation level (pTyr/Tie2 ratio, HUVEC, 60 nM antibody with Ang2): 180%
